Results from PMC9482650, “Quantitative fragmentomics allow affinity mapping of interactomes” (Nature Communications, 2022).

Assays:
Experiment in all cases: holdup assay
Parameters in all cases: key: below the threshold = too weak to quantify, mostly under pKd 3.1 to 4
[1] = biological target: AHNAK1, Q09666
[2] = biological target: CASK, O14936
[3] = biological target: T1, DFNB31_2, Q9P202
T1 sequence (Q9P202 274-371, limits assumed, looked up): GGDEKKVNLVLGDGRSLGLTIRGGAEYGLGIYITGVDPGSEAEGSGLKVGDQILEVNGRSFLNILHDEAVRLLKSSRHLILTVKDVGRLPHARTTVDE

[4] = biological target: DLG1_1, Q12959
[5] = biological target: DLG1_3, Q12959
[6] = biological target: T2, DLG3_2, Q92796
T2 sequence (Q92796 221-321, limits assumed, looked up): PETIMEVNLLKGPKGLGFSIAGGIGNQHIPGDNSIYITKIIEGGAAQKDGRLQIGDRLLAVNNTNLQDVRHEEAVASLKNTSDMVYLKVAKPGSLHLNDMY

[7] = biological target: T3, DLG3_3, Q92796
T3 sequence (Q92796 374-475, limits assumed, looked up): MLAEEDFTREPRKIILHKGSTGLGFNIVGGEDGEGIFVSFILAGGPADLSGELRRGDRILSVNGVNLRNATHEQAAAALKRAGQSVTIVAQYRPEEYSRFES

[8] = biological target: GOPC, Q9HD26
[9] = biological target: GRID2IP_1, A4D2P6
[10] = biological target: T4, GRIP1_3, Q9Y3R0
T4 sequence (Q9Y3R0 247-346, limits assumed, looked up): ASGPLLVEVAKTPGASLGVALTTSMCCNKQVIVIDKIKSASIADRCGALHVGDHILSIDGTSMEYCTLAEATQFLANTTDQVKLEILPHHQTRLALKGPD

[11] = biological target: Inadl_10, Q8NI35
[12] = biological target: Inadl_2, Q8NI35
[13] = biological target: Inadl_4, Q8NI35
[14] = biological target: LDB3, O75112
[15] = biological target: LNX1_1, Q8TBB1
[16] = biological target: T5, LNX2_3, Q8N448
T5 sequence (Q8N448 463-564, limits assumed, looked up): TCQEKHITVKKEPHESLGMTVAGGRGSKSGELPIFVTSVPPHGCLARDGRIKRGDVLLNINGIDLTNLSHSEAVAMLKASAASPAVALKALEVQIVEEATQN

[17] = biological target: T6, LRRC7, Q96NW7
T6 sequence (Q96NW7 1440-1537, limits assumed, looked up): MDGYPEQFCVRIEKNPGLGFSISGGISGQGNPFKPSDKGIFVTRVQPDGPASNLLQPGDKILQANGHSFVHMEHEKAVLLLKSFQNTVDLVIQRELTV

[18] = biological target: MAGI2_3, Q86UL8
[19] = biological target: T7, MPP2, Q14168
T7 sequence (Q14168 180-250, limits assumed, looked up): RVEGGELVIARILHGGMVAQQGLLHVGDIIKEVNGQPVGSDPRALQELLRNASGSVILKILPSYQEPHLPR

[20] = biological target: T8, NHERF3_3, Q5T2W1
T8 sequence (Q5T2W1 238-333, limits assumed, looked up): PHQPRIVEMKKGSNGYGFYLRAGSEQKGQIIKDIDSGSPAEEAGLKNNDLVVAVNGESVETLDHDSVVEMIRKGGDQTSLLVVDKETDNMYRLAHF

[21] = biological target: PDZRN4_1, Q6ZMN7
[22] = biological target: PICK1, Q9NRD5
[23] = biological target: T9, RAPGEF6, Q8TEU7
T9 sequence (Q8TEU7 525-625, limits assumed, looked up): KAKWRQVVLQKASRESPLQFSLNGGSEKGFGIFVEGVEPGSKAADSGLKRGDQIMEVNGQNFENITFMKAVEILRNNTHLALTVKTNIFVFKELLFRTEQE

[24] = biological target: T10, RHPN1, Q8TCX5
T10 sequence (Q8TCX5 508-602, limits assumed, looked up): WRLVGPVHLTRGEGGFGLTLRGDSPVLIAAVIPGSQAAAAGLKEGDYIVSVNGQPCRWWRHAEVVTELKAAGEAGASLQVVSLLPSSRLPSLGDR

[25] = biological target: SCRIB_1, Q14160
[26] = biological target: SCRIB_2, Q14160
[27] = biological target: T11, TIAM2, Q8IVF5
T11 sequence (Q8IVF5 885-986, limits assumed, looked up): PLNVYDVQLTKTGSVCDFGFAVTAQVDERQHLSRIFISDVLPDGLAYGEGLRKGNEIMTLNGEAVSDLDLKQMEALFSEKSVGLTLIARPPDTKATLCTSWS

[28] = plain residues with an end cap or a label only (N-terminal biotin on a linker: ado-ado)
[29] = plain residues with an end cap or a label only (N-terminal biotin on a linker: ahx)
[30] = plain residues with an end cap or a label only (N-terminal biotin on a linker: ttds)

Measured: pKd

LDB3, O75112, sequence (O75112 1-94): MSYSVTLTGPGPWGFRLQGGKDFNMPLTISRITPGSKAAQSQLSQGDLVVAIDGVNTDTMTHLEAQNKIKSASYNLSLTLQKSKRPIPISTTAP
MAGI2_3, Q86UL8, sequence (Q86UL8 600-682): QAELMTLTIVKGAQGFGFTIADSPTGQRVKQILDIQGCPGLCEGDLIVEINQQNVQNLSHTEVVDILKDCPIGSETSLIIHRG
PDZRN4_1, Q6ZMN7, sequence (Q6ZMN7 213-318): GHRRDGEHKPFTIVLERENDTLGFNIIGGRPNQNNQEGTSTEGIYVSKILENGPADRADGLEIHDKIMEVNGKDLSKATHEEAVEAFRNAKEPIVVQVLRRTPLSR
GRID2IP_1, A4D2P6, sequence (A4D2P6 1-87): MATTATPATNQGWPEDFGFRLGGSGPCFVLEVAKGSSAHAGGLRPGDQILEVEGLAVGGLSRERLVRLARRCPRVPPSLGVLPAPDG
LNX1_1, Q8TBB1, sequence (Q8TBB1 261-371): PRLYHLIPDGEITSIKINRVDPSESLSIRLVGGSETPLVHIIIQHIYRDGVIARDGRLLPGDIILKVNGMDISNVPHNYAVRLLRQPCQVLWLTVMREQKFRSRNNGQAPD
Inadl_4, Q8NI35, sequence (Q8NI35 547-651): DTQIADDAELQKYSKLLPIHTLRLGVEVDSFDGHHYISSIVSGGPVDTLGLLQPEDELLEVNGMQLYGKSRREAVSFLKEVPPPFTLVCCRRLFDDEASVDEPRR
AHNAK1, Q09666, sequence (Q09666 4-100): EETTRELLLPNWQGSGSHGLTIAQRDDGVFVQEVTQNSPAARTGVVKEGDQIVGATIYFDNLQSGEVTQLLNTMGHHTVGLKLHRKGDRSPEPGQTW
PICK1, Q9NRD5, sequence (Q9NRD5 17-115): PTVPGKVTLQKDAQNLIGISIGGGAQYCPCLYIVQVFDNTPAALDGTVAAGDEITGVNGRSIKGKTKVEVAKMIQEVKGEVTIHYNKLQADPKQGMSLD
CASK, O14936, sequence (O14936 487-570): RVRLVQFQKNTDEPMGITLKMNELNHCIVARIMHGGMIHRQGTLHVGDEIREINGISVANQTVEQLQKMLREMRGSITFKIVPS
Inadl_2, Q8NI35, sequence (Q8NI35 238-335): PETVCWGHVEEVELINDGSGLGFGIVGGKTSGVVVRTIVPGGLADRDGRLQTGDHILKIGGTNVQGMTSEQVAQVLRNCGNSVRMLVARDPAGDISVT
SCRIB_2, Q14160, sequence (Q14160 857-960): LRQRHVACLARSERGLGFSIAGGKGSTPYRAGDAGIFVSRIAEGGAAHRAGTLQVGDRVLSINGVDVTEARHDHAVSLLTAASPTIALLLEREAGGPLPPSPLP
SCRIB_1, Q14160, sequence (Q14160 718-814): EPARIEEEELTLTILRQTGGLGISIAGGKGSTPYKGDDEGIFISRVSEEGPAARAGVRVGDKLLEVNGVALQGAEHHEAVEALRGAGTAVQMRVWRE
Inadl_10, Q8NI35, sequence (Q8NI35 1673-1763): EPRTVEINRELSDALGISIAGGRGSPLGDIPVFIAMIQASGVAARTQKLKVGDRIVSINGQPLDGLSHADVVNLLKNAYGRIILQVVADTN

DAAHHDESNC [FMNL3, Q8IVF7]
3.75: [24]; [28]
3.8: [27]; [28]
4.09: [6]; [28]
below the threshold: [1]; [28] | [2]; [28] | [3]; [28] | [4]; [28] | [5]; [28] | [7]; [28] | [8]; [28] | [9]; [28] | [10]; [28] | [11]; [28] | [12]; [28] | [13]; [28] | [14]; [28] | [15]; [28] | [16]; [28] | [17]; [28] | [18]; [28] | [19]; [28] | [20]; [28] | [21]; [28] | [22]; [28] | [23]; [28] | [25]; [28] | [26]; [28]

KEYDDELTFF [USH1C, Q9Y6N9]
4.11: [24]; [29]
below the threshold: [1]; [29] | [2]; [29] | [3]; [29] | [4]; [29] | [5]; [29] | [7]; [29] | [8]; [29] | [9]; [29] | [10]; [29] | [11]; [29] | [13]; [29] | [14]; [29] | [15]; [29] | [16]; [29] | [17]; [29] | [18]; [29] | [19]; [29] | [20]; [29] | [21]; [29] | [22]; [29] | [23]; [29] | [25]; [29] | [26]; [29] | [27]; [29]
3.61: [6]; [29]
4.09: [12]; [29]

EKPIDSETKM [SLC1A3, P43003]
3.5: [25]; [28]
3.61: [20]; [28]
below the threshold: [1]; [28] | [2]; [28] | [3]; [28] | [4]; [28] | [5]; [28] | [6]; [28] | [7]; [28] | [8]; [28] | [9]; [28] | [10]; [28] | [11]; [28] | [12]; [28] | [13]; [28] | [14]; [28] | [15]; [28] | [16]; [28] | [17]; [28] | [18]; [28] | [19]; [28] | [21]; [28] | [22]; [28] | [23]; [28] | [26]; [28] | [27]; [28]
3.55: [24]; [28]

PSRDRKETSI [RALBP1, Q15311]
4.57: [21]; [30]
4.77: [7]; [30]
3.79: [4]; [30]
4.35: [6]; [30]
3.6: [8]; [30]
4.49: [25]; [30]
3.92: [24]; [30]
3.75: [26]; [30]
4.28: [5]; [30]
below the threshold: [1]; [30] | [2]; [30] | [3]; [30] | [9]; [30] | [10]; [30] | [11]; [30] | [12]; [30] | [13]; [30] | [14]; [30] | [15]; [30] | [16]; [30] | [17]; [30] | [18]; [30] | [19]; [30] | [20]; [30] | [22]; [30] | [23]; [30] | [27]; [30]

VNENQKEYFF [CNTNAP4, Q9C0A0]
below the threshold: [1]; [29] | [3]; [29] | [4]; [29] | [5]; [29] | [6]; [29] | [7]; [29] | [8]; [29] | [9]; [29] | [10]; [29] | [11]; [29] | [13]; [29] | [14]; [29] | [15]; [29] | [16]; [29] | [17]; [29] | [18]; [29] | [19]; [29] | [20]; [29] | [21]; [29] | [22]; [29] | [23]; [29] | [24]; [29] | [25]; [29] | [26]; [29]
3.79: [2]; [29]
4.62: [27]; [29]
5.4: [12]; [29]
